Substitutions are numbered along the chain they refer to.

For assay [1], the target named is T1, recombinant human CD30L isoleucine zipper (huCD30L LZ) (human, UniProt P32971 63-234).
T1 sequence: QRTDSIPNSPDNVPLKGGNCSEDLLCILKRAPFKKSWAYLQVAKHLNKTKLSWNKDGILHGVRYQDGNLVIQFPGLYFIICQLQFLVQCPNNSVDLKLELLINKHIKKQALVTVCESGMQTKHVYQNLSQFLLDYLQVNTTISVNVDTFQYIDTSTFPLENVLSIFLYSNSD
The assay can be described thus: cell-based or functional assay.

The target of assay [2] is T2, native human CD30L expressed on Ramos cells (human, UniProt P32971 1-234).
T2 sequence: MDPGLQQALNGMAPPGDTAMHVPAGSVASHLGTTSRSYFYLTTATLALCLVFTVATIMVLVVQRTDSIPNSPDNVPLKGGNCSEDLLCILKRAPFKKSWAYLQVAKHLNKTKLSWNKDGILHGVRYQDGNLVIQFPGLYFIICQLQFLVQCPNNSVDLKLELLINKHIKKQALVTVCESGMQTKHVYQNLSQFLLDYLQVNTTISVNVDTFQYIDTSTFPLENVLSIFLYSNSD
The assay can be described thus: cell-based or functional assay.

In another assay the target is T3, cyno CD30L LZ (cynomolgus monkey, UniProt A0A7N9CVX7 63-234).
T3 sequence: T1 sequence with V13I, K16R, I142V, I165V
The assay can be described thus: cell-based or functional assay.

Assay [3] has as its target T4, FLAG-hCD30L-EC (N153Q) treated with PNGaseF (human).
T4 construct: also called FLAG-hCD30L-EC + PNGaseF
T4 chain: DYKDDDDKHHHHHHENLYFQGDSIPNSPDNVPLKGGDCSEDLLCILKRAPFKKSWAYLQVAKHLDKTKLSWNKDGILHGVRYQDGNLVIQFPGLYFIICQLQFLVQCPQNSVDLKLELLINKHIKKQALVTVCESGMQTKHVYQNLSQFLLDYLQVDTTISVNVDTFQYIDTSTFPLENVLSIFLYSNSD
The assay can be described thus: HX-MS, 6 uM hCD30L with 6.6 uM mAb.

For assay [4], the target named is T1, recombinant human CD30L isoleucine …. The assay can be described thus: blocking of human CD30L LZ binding to K299 cells (CD30).

B1: Antibody A1 (antibody, V domains shown)
VH: QVQLQESGPGLVKPSETLSLTCTVSGGSISSYIWSWIRQPAGKGLEWIGRIYASGNTNYNPSLKSRVTISVDTSKNQFSLKLSSMTAADTAVYYCARDYRVAGTYYYYYGLDVWGQGTTVTVSS
VL: QSALTQPASVSGSPGQSITISCTGTSSDVGVYDYVSWYQQHPGKAPKLMIYEVSNRPSGVSNRFSGSKSGNTASLTISGLQTEDEADYYCSSYTSRSTWVFGGGTKLTVL
notes: also called mAb A1; Antibody A1 IgG2
By IC50 is commonly meant the midpoint of a concentration-inhibition curve. Regarding B1, the “IC50, inhibition of IL-8 release (K299 single cell assay with huCD30L LZ)” value in assay [1] was determined as 2.7 nM. Further, the “IC50, inhibition of IL-8 release (K299/Ramos dual cell assay)” value in assay [2] amounted to 0.033 nM. Moreover, the “IC50, inhibition of IL-8 release (K299 single cell assay with cyno CD30L LZ)” value in the assay with cyno CD30L LZ is 2.4 nM. The binding result in assay [3] was “binds”. Also, the IC50 in assay [4] is 1.4 nM.

B2: Antibody A1 IgG1 (antibody, V domains shown)
VH: B1 VH
VL: B1 VL
B2: the “IC50, inhibition of IL-8 release (K299/Ramos dual cell assay)” value in assay [2] is 0.032 nM. Further, the “IC50, inhibition of IL-8 release (K299 single cell assay with cyno CD30L LZ)” value with cyno CD30L LZ was 1.5 nM.
